From publication doi:10.1101/364463 (bioRxiv, 2019)
Positions count from the first letter of the chain named.

Columns and labels:
Experiment in all cases: pull-down
GST-PI31-S168D = target: T1, GST-PI31-S168D (Drosophila, UniProt Q9V637 1-270, S168D)
T1 sequence: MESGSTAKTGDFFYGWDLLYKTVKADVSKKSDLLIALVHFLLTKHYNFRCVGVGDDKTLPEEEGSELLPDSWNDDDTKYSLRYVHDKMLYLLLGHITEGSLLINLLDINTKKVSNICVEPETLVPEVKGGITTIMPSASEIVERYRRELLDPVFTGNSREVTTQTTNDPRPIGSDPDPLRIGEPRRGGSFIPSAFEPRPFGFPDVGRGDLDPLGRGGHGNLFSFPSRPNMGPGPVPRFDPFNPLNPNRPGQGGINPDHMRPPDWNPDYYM

GST-PI31-S168E = target: T2, GST-PI31-S168E (Drosophila, UniProt Q9V637 1-270, S168E)
T2 sequence: T1 sequence with D168E

GST-PI31-WT = target: T3, GST-PI31-WT (Drosophila, UniProt Q9V637 1-270)
T3 sequence: T1 sequence with D168S

- binding result (GST-PI31-S168D): binds
- binding result (GST-PI31-S168E): binds
- binding result (GST-PI31-WT): binds
B1: FLAG-dDYNLL1 (recombinant, E. coli) (natural protein)
chain: MSDRKAVIKNADMSEEMQQDAVDCATQALEKYNIEKDIAAYIKKEFDKKYNPTWHCIVGRNFGSYVTHETRHFIYFYLGQVAILLFKSG
